# Reference: patent publication US6933149B2, “Culture system for mouse tracheal epithelial cells” (North Carolina State University, priority 2001, dated 2005)
# B1: IL-13: recombinant murine IL-13, an inflammatory mediator shown to mediate epithelial cell proliferation (protein, UniProt P20109 19-131, looked up)
# Interleukin-13: APGPVPRSVSLPLTLKELIEELSNITQDQTPLCNGSMVWSVDLAAGGFCVALDSLTNISNCNAIYRTQRILHGLCNRKAPTTVSSLPDTKIEVAHFITKLLSYTKQLFRHGPF
# Test system: MTE cell cultures
# Experiment: IL-13 treatment of MTE cell cultures, Periodic Acid Schiff-stained cross-sections
# Assay type: cell-based, mouse
# Conditions: for proliferation of MTE cell cultures in response to IL-13: Method 2 cultures (5% serum until air/liquid interface)
# Experimental: FIGS. 2A and 2B includes two photographs of Periodic Acid Schiff-stained cross-sections of MTE cell cultures. FIG. 2B depicts the control culture that was only exposed to the normal media required for MTE cell growth, while FIG. 2A depicts the IL-13-treated culture which was exposed to recombinant murine IL-13 (10ng/ml) for 9 days.
# Epithelial cells isolated from the trachea of two mice were used to seed a one cm^2 area. Cells were placed in the apical chamber of the culture insert in medium comprising DMEM F12 plus additives (see above table). The basolateral chamber was supplied with medium and 10% FCS for 24 hours, after which FCS was no longer added to the basolateral media. Cells were maintained for 5 days and then the apical media was removed to create an air/liquid interface. Cells were then maintained in culture for approximately 16 more days.
# The present methods were also used to achieve MTE cultures grown with 5% serum until the air/liquid interface is established. This is referred to as “Method 2—Combination.” This approach allows for more rapid growth of the cells while removing the confounding effects of serum for the experimentation period. […] FIGS. 2A and 2B illustrate the increase in the epithelial cell number of cell cultures exposed to an IL-13 regimen. Specifically FIGS. 2A and 2B show two photographs of Periodic Acid Schiff-stained cross-sections of MTE cell cultures. FIG. 2A depicts an IL-13-treated culture that was exposed to recombinant murine IL-13 (10ng/ml) for 9 days while FIG. 2B is a photograph of a control culture that was only exposed to the normal media required for MTE cell growth.
molecule,measurement,setting,value
B1,proliferation of MTE cell cultures in response to IL-13,,respond to IL-13 with proliferation
same,proliferation of MTE cell cultures in response to IL-13,listed as interleukin 13,proliferate
same,epithelial cell number,"recombinant murine IL-13 10ng/ml for 9 days vs control culture in normal media, FIGS. 2A and 2B",increase in epithelial cell number
